{"source": "paper PMC10514136", "about": "“Peptide-conjugated antimiRs improve myotonic dystrophy type 1 phenotypes by promoting endogenous MBNL1 expression” (Molecular Therapy. Nucleic Acids, 2023)", "key": {"[1]": {"system": "MBNL1 protein levels in DM1 cells", "type": "cell-based, human", "details": "for Tindex (therapeutic index): Tindex = TC50 x Emax / EC50; for EC50: median effective concentration for MBNL1 increase, DM1 myotubes, lipofection (X-tremeGENE HP), medium replaced after 4 h, cells collected day 4, each concentration in triplicate; for MBNL1 fold change: transfection, vs untreated DM1 cells", "protocol": "Immortalized MyoD-inducible (doxycycline) DM1 and control fibroblasts were kindly provided by Dr Furling (Institute of Myology, Paris, France).[38] For the activity assay, cells were seeded in 6-well plates at a density of 8 × 10^4 cells/well and grown in DMEM with 4.5 g/L glucose, 1% P/S, and 10% FBS (Sigma, St. Louis, MO). […] In all cases, the cells were grown at 37°C in a humidified atmosphere containing 5% CO2. Transdifferentiation was induced at day 0, and transfection was performed by lipofection with X-tremeGENE HP (Roche, Basel, Switzerland) 24 h later, with antimiRs and test compounds in the cell medium at different concentrations (from 0.4 nM to 5 μM). The medium was replaced with fresh differentiation medium 4 h afterward. In the gymnosis assay, test compounds were added to the culture medium only at the corresponding EC50 concentration. Cells were collected on day 4 of differentiation and were processed for protein extraction.\nFor total protein extraction, human muscle cells were sonicated while mouse muscles (gastrocnemius and quadriceps) were homogenized in Pierce RIPA buffer (Thermo Scientific, Waltham, MA) supplemented with protease and phosphatase inhibitor cocktails (Roche Applied Science, Penzberg, Germany). Quantification of total protein was performed with a Pierce BCA protein assay kit (Thermo Scientific) using bovine serum albumin as standard.\nA 96-well plate QDB assay was used[87] to determine MBNL1 protein levels in all replicates and concentrations of each ON tested. This technique allows for high-throughput screening of low protein concentration samples over conventional western blot (WB) (Figure S9).[88] Cell samples (1 μg/well) and mice samples (2 μg/well) were prepared with 4× loading buffer, denatured (100°C for 5 min) and loaded in QDB plates (Quanticision Diagnostics, Research Triangle Park, NC). For the quantification of in vitro samples, the QDB was performed exactly as described in Moreno et al.[87] […] For Mbnl1 quantification in mouse muscle tissues, we implemented the following modifications: each sample was loaded in quadruplicate on three different plates. One was used to detect Mbnl1 with a mouse MB1a(4A8) antibody (DSHB, Iowa City, IA) using a 1:200 dilution. A second plate was used to quantify tubulin (endogenous normalization control) with a mouse 12G10 antibody (DSHB) using a 1:1,000 dilution. A third plate was used to quantify IgG signal (negative control to subtract background) using an anti-mouse-IgG secondary antibody (Sigma-Aldrich) at 1:3,500 dilution. […] All primary antibodies were detected using horseradish peroxidase-conjugated anti-mouse-IgG secondary antibody (1:5,000 for the anti-mouse plate, 1:2,000 for cell plates, and 1:3,500 for mouse plates [Sigma-Aldrich, MO]). Immunoreactive bands were detected using Pierce ECL Western reagent (Thermo Scientific), and luminescence levels were determined using an Infinite M200 PRO plate reader (Tecan). […] WB assay was performed as described previously.[20]\nAfter obtaining the TC50, EC50, and Emax in vitro, we defined a Tindex as follows: Tindex=TC50×Emax/EC50"}, "Nfix exon 7": {"system": "Nfix exon 7", "experiment": "Alternative splicing of Nfix exon 7 in muscle by RT-PCR (PSI, splice recovery)", "type": "in vivo, mouse", "details": "HSALR mice, individual mice; for Percentage spliced-in (PSI) Nfix Gast: 9.2 mg/kg (mean) i.v. x3, day 45, gastrocnemius; for Percentage spliced-in (PSI) Nfix Quads: 9.2 mg/kg (mean) i.v. x3, day 45, quadriceps", "protocol": "(§1) Total RNA from murine gastrocnemius and quadriceps muscle was isolated using the miRNeasy Mini Kit (QIAGEN, Hilden, Germany) according to the manufacturer’s instructions. One microgram of RNA was digested with DNase I (Invitrogen, Carlsbad, CA) and reverse transcribed with SuperScript II (Invitrogen) using random hexanucleotides. For subsequent PCR reactions, 20 ng of cDNA was used with GoTaq polymerase (Promega). Specific primers were used to analyze the alternative splicing of Nfix, Atp2a1, and Clcn1 in mouse samples (both muscles). Gapdh levels established the endogenous reference levels using 0.2 ng of cDNA. PCR products were separated on a 2% agarose gel and quantified using ImageJ software (NIH, Bethesda, MD). PSR index was defined as value%SI minus X¯%DSI , divided by X¯%DSI minus X¯%HSI (SI, splicing inclusion of each sample; DSI, disease splicing inclusion; HSI, healthy splicing inclusion). Overall, PSR indicates the amount in both muscles analyzed. Primer sequences and exons analyzed are available in Cerro-Herreros et al.[20] In the case of off-targets, interleukins, and muscle regeneration marker Mstn-1, primers sequences are available in Table S5. We used 1 ng of mouse tissue cDNA as a template for multiplex qPCR using the QuantiFast Probe PCR Kit reagent. Commercial TaqMan probes (QIAGEN) were used for mouse (Mbnl1 and Mbnl2; FAM-labeled probes) and reference (GAPDH; MAX-labeled probe) genes. Results were normalized to Gapdh endogenous gene expression.\n(§2) We used homozygous transgenic HSA^LR (line 20 b) mice,[90] which were kindly provided by Dr Thornton (Rochester, NY) and were housed and bred in our animal facility. Experimental groups were FVB as healthy control and HSA^LR treated with a scrambled ON (SC) and PBS as negative controls, and HSA^LR mice treated with all six experimental CPP-PMOs. The mice were randomly allocated to the different treatments as follows: in each cage, each mouse was ear-marked as it was taken out, and each mouse was then assigned to a different treatment. […] Mice were sacrificed 45 days after the first injection and the tissues of interest were frozen in liquid nitrogen for the molecular and histological assays. All the mice used in this study ranged from 5 to 5.5 months of age and all were males."}, "Clcn1 exon 7a": {"system": "Clcn1 exon 7a", "experiment": "Alternative splicing of Clcn1 exon 7a in muscle by RT-PCR (PSI, splice recovery)", "type": "in vivo, mouse", "details": "HSALR mice, individual mice; for Percentage spliced-in (PSI) Clcn1 Gast: 9.2 mg/kg (mean) i.v. x3, day 45, gastrocnemius; for Percentage spliced-in (PSI) Clcn1 Quads: 9.2 mg/kg (mean) i.v. x3, day 45, quadriceps", "protocol": "as §1, §2"}, "HSALR mice": {"system": "HSALR mice", "experiment": "Serum biochemistry profile", "type": "in vivo, mouse", "details": "mouse, in vivo, iv, 9.2 mg/kg", "excerpt": "Mouse handling and experimental procedures followed the European law regarding laboratory animal care and experimentation (2003/65/C.E.) and were approved by Conselleria de Agricultura, […] (reference no. A1539961490857). We used homozygous transgenic HSA^LR (line 20 b) mice,[90] which were kindly provided by Dr Thornton (Rochester, NY) and were housed and bred in our animal facility. […] The mice were randomly allocated to the different treatments as follows: in each cage, each mouse was ear-marked as it was taken out, and each mouse was then assigned to a different treatment. Animals were injected biweekly intravenously with 150 μL of 1× PBS vehicle (controls; […] Mice were sacrificed 45 days after the first injection and the tissues of interest were frozen in liquid nitrogen for the molecular and histological assays. All the mice used in this study ranged from 5 to 5.5 months of age and all were males. At 45 days post treatment, animals were sacrificed, and blood was collected by cardiac puncture exsanguination with K3-EDTA (Sarstedt, Nümbrecht, Germany). The samples were analyzed by Laboratorios Montoro Botella (Valencia, Spain)."}}, "note": "Values joined by “and” are separate entries in the source; they are usually repeats but may differ in a detail not shown here. Equal entries are not always repeated. Where two headings read alike, the source gives them in different places."}
{"substance": "9b2KC-23b (antisense GGUAAUCCCUGGCAAUGUGAU; all phosphorodiamidate morpholino (PMO), T or U not given here; Pip9b2KC peptide conjugated)", "values": [{"measurement": "TC50 relative to EC50", "setting": "[1]", "result": 128, "unit": "fold"}, {"measurement": "Tindex (therapeutic index)", "setting": "[1]", "result": 404.48}, {"measurement": "EC50", "setting": "[1]", "result": 2, "unit": "nM"}, {"measurement": "MBNL1 fold change", "setting": "[1]; 200 nM", "result": "~3", "unit": "fold"}, {"measurement": "Percentage spliced-in (PSI) Nfix Gast", "setting": "Nfix exon 7", "result": "45.55% and 53.38% and 57.04% and 62.73% and 57.17%"}, {"measurement": "Percentage spliced-in (PSI) Nfix Quads", "setting": "Nfix exon 7", "result": "54.10% and 56.90% and 66.58% and 51.62% and 56.46%"}, {"measurement": "Percentage spliced-in (PSI) Clcn1 Gast", "setting": "Clcn1 exon 7a", "result": "18.78% and 26.33% and 30.11% and 15.58% and 38.58%"}, {"measurement": "Percentage spliced-in (PSI) Clcn1 Quads", "setting": "Clcn1 exon 7a", "result": "29.66% and 22.47% and 19.41% and 27.99% and 26.94%"}, {"measurement": "ALT", "setting": "HSALR mice", "result": "45,20 ± 1,303 U/L"}, {"measurement": "Alkaline Phosphatase", "setting": "HSALR mice", "result": "58,8 ± 5,718 U/L"}, {"measurement": "Amylase", "setting": "HSALR mice", "result": "2952,6 ± 123,373 U/L"}, {"measurement": "Bile Acids", "setting": "HSALR mice", "result": "8,40 ± 8,264 µmol/L"}, {"measurement": "Bilirubin", "setting": "HSALR mice", "result": "0,10 ± 0,045 mg/dL"}, {"measurement": "Creatinine", "setting": "HSALR mice", "result": "0.20 ± 0,071 mg/dL"}, {"measurement": "Lipase", "setting": "HSALR mice", "result": "30,6 ± 6,730 U/L"}, {"measurement": "Urea", "setting": "HSALR mice", "result": "43,6 ± 6,580 mg/dL"}]}
{"substance": "9b2KC-218 (antisense ACAUGGUUAGAUCAAGCACAA; all phosphorodiamidate morpholino (PMO), T or U not given here; Pip9b2KC peptide conjugated)", "values": [{"measurement": "Tindex (therapeutic index)", "setting": "[1]", "result": 198.07}, {"measurement": "EC50", "setting": "[1]", "result": 2.58, "unit": "nM"}, {"measurement": "MBNL1 fold change", "setting": "[1]; 10 nM", "result": "~6", "unit": "fold"}, {"measurement": "Percentage spliced-in (PSI) Nfix Gast", "setting": "Nfix exon 7", "result": "66.68% and 66.91% and 60.18% and 67.84% and 62.07%"}, {"measurement": "Percentage spliced-in (PSI) Nfix Quads", "setting": "Nfix exon 7", "result": "48.85% and 67.46% and 51.19% and 51.94% and 21.60%"}, {"measurement": "Percentage spliced-in (PSI) Clcn1 Gast", "setting": "Clcn1 exon 7a", "result": "32.73% and 22.25% and 31.59% and 22.57% and 29.41%"}, {"measurement": "Percentage spliced-in (PSI) Clcn1 Quads", "setting": "Clcn1 exon 7a", "result": "2.19% and 27.06% and 25.84% and 30.53% and 22.73%"}, {"measurement": "ALT", "setting": "HSALR mice", "result": "47 ± 10", "unit": "U/L"}, {"measurement": "Alkaline Phosphatase", "setting": "HSALR mice", "result": "59,8 ± 6,300 U/L"}, {"measurement": "Amylase", "setting": "HSALR mice", "result": "2593,4 ± 987,253 U/L"}, {"measurement": "Bile Acids", "setting": "HSALR mice", "result": "55,20 ± 107,339 µmol/L"}, {"measurement": "Bilirubin", "setting": "HSALR mice", "result": "0,112 ± 0,026 mg/dL"}, {"measurement": "Creatinine", "setting": "HSALR mice", "result": "0,22 ± 0,084 mg/dL"}, {"measurement": "Lipase", "setting": "HSALR mice", "result": "134,4 ± 227,401 U/L"}, {"measurement": "Urea", "setting": "HSALR mice", "result": "41 ± 1,871 mg/dL"}]}
